Results as given in US20220089722A1 (NANTONG YICHEN BIOPHARMA, published 2022).

T1: CD19 on NALM-6 cells (UniProt P15391 20-556, limits assumed)
T1 sequence (looked up): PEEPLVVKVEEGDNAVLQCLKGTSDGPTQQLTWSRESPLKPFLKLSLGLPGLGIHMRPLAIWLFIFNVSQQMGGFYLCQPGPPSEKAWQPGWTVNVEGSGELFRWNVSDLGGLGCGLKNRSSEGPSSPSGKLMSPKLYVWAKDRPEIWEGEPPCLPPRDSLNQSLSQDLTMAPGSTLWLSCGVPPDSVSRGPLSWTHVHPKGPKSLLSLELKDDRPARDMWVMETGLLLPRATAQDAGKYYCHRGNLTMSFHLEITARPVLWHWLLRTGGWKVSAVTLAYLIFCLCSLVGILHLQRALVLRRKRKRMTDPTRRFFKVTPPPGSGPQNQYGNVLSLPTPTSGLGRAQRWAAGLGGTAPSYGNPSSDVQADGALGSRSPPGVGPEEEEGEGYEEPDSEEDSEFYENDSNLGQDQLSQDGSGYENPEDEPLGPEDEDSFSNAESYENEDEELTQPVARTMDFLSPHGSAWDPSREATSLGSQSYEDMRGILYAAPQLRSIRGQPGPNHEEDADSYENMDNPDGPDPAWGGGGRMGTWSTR


Columns and labels:
[1] = biological target: T1, CD19 on NALM-6 cells; assay: cell-based or functional assay
[2] = biological target: T2, EGFR on F98-EGFR cells (UniProt P00533 25-1210, limits assumed); assay: flow cytometry on F98-EGFR cells
T2 construct: whole, on cells
Procedure: F98-EGFR cells (a DMEM containing 10% FBS, 200 μg/ml G418) were cultured. 2×10⁵ cells were washed by precooled PBS for 3 times, and blocked by 2% FBS (soluble to PBS). IgFD-8, IgFD-9, IgFD-10, IgFD-11, IgFD-18, IgFD-19, IgFD-25, IgFD-26 or IgFD-31 (aEGFR expressed in a laboratory as a control) was added and incubated for 2 h at 4° C. (cells were gently mixed during incubation), unbounded antibodies were washed by 2% FBS (soluble to PBS), and then the remaining cells were incubated by FITC anti-human IgGFc(KPL, Inc., MD) for 1 h at 4° C., and washed by 2% FBS (soluble to PBS) for flow cytometry analysis. As shown in FIG. 7 and Table 4, the anti-CD3/anti-EGFR heterodimers in different forms of fusion could bind to EGFR on F98-EGFR cells, and there was no significant difference in the binding capacity of different heterodimers to F98-EGFR.

[3] = biological target: T3, CD3 on T cells (Jurkat T cells; PBMC-T cells); assay: flow cytometry on Jurkat T cells
T3 construct: whole, on cells; the target is inferred from the anti-CD3 arm of the constructs
Procedure: Jurkat cells (a medium containing 10% FBS) were cultured. 2×10⁵ cells were washed by precooled PBS for 3 times, and blocked by 2% FBS (soluble to PBS). Purified IgFD-11, IgFD-8, IgFD-25, IgFD-26, IgFD-31 or IgFD-36 (aEGFR expressed in a laboratory as a control) were added and incubated for 2 h at 4° C. (cells were gently mixed during incubation), followed by 2% FBS(in PBS) wash. The cells were incubated by FITC anti-human IgGFc (KPL, Inc., MD) for 1 h at 4° C. and subjected to flow cytometry analysis after washing with 2% FBS(in PBS).

[4] = biological target: T2, EGFR on F98-EGFR cells; assay: cell-based or functional assay

T3 sequence (P07766 23-207): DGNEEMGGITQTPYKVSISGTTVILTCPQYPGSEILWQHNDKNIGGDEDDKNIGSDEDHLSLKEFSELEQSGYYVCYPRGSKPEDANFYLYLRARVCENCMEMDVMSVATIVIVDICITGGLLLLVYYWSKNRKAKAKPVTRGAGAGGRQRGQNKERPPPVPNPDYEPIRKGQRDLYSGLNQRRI

Row | Binder | Promotion for the specific killing effect of PBMCs on target cells by heterodimers (EC50, pM); Nalm-6 cells [1] [pM] | Kd [2] [nM] | Kd [3] [nM] | Promotion for the specific killing effect of PBMCs on target cells by heterodimers (EC50, pM); F98-EGFR cells, LDH assay [4] [pM]
1 | IgFD-6(anti-CD19/CD3) (bispecific antibody, human IgG1, kappa) chain 1: EVQLVESGGGLVQPGGSLRLSCAASGFTFNTYAMNWVRQAPGKGLEWVARIRSKYNNYATYYADSVKDRFTISRDDSKNTLYLQMNSLRAEDTAVYYCVRHGNFGNSYVSWFAYWGQGTLVTVSSASTKGPSVFPLAPSSKSTSGGTAALGCLVKDYFPEPVTVSWNSGALTSGVHTFPAVLQSSGLYSLSSVVTVPSSSLGTQTYICNVNHKPSNTKVDKKVEPKSCDKTHTCPPCPAPPVAGPSVFLFPPKPKDTLMISRTPEVTCVVVDVSHEDPEVKFNWYVDGVEVHNAKTKPREEQYNSTYRVVSVLTVLHQDWLNGKEYKCKVSNKGLPSSIEKTISKAKGQPREPQVYTLPPSRDELTKNQVSLTCLVKGFYPSDIAVEWESNGQPENNYKTTPPVLDSDGSFFLYSKLTVDKSRWQQGNVFSCSVMHEALHNHYTQKSLSLSPGKSGGGGSGGGGSGGGGSDIQMTQTTSSLSASLGDRVTISCRASQDISKYLNWYQQKPDGTVKLLIYHTSRLHSGVPSRFSGSGSGTDYSLTISNLEQEDIATYFCQQGNTLPYTFGGGTKLEITGGGGSGGGGSGGGGSEVKLQESGPGLVAPSQSLSVTCTVSGVSLPDYGVSWIRQPPRKGLEWLGVIWGSETTYYNSALKSRLTIIKDNSKSQVFLKMNSLQTDDTAIYYCAKHYYYGGSYAMDYWGQGTSVTVSS chain 2: QAVVTQEPSLTVSPGGTVTLTCRSSTGAVTTSNYANWVQQKPDHLFRGLIGGTNKRAPGTPARFSGSLLGDKAALTISGAQPEDEAEYYCALWYSNLWVFGGGTKLTVLKRTVAAPSVFIFPPSDEQLKSGTASVVCLLNNFYPREAKVQWKVDNALQSGNSQESVTEQDSKDSTYSLSSTLTLSKADYEKHKVYACEVTHQGLSSPVTKSFNRGECDKTHTCPPCPAPPVAGPSVFLFPPKPKDTLMISRTPEVTCVVVDVSHEDPEVKFNWYVDGVEVHNAKTKPREEQYNSTYRVVSVLTVLHQDWLNGKEYKCKVSNKGLPSSIEKTISKAKGQPREPQVYTLPPSRDELTKNQVSLTCLVKGFYPSDIAVEWESNGQPENNYKTTPPVLDSDGSFFLYSKLTVDKSRWQQGNVFSCSVMHEALHNHYTQKSLSLSPGK | 14.9 |  |  | 
2 | IgFD-26(anti-CD3/EGFR) (bispecific antibody, human IgG1, kappa, N297A) chain 1: not shown chain 2: QAVVTQEPSLTVSPGGTVTLTCRSSTGAVTTSNYANWVQQKPDHLFRGLIGGTNKRAPGTPARFSGSLLGDKAALTISGAQPEDEAEYYCALWYSNLWVFGGGTKLTVLKRTVAAPSVFIFPPSDEQLKSGTASVVCLLNNFYPREAKVQWKVDNALQSGNSQESVTEQDSKDSTYSLSSTLTLSKADYEKHKVYACEVTHQGLSSPVTKSFNRGECDKTHTCPPCPAPELLGGPSVFLFPPKPKDTLMISRTPEVTCVVVDVSHEDPEVKFNWYVDGVEVHNAKTKPREEQYASTYRVVSVLTVLHQDWLNGKEYKCKVSNKALPAPIEKTISKAKGQPREPQVCTLPPSREEMTKNQVSLSCAVKGFYPSDIAVEWESNGQPENNYKTTPPVLDSDGSFFLVSKLTVDKSRWQQGNVFSCSVMHEALHNHYTQKSLSLSPGKGGSGGSGGGGSGGGGSDIQMTQSPSSLSASVGDRVTITCQASQDISNYLNWYQQKPGKAPKLLIYDASNLETGVPSRFSGSGSGTDFTFTISSLQPEDIATYFCQHFDHLPLAFGGGTKVEIKGGGGSGGGGSGGGGSQVQLQESGPGLVKPSETLSLTCTVSGGSVSSGDYYWTWIRQSPGKGLEWIGHIYYSGNTNYNPSLKSRLTISIDTSKTQFSLKLSSVTAADTAIYYCVRDRVTGAFDIWGQGTMVTVSS |  | 5.28 | 4.23 | 105
3 | IgFD-25(anti-CD3/EGFR) (bispecific antibody, human IgG1, kappa) chain 1: EVQLVESGGGLVQPGGSLRLSCAASGFTFNTYAMNWVRQAPGKGLEWVARIRSKYNNYATYYADSVKDRFTISRDDSKNTLYLQMNSLRAEDTAVYYCVRHGNFGNSYVSWFAYWGQGTLVTVSSASTKGPSVFPLAPSSKSTSGGTAALGCLVKDYFPEPVTVSWNSGALTSGVHTFPAVLQSSGLYSLSSVVTVPSSSLGTQTYICNVNHKPSNTKVDKKVEPKSCDKTHTCPPCPAPPVAGPSVFLFPPKPKDTLMISRTPEVTCVVVDVSHEDPEVKFNWYVDGVEVHNAKTKPREEQYNSTYRVVSVLTVLHQDWLNGKEYKCKVSNKGLPSSIEKTISKAKGQPREPQVYTLPPCRDELTKNQVSLWCLVKGFYPSDIAVEWESNGQPENNYKTTPPVLDSDGSFFLYSKLTVDKSRWQQGNVFSCSVMHEALHNHYTQKSLSLSPGK chain 2: QAVVTQEPSLTVSPGGTVTLTCRSSTGAVTTSNYANWVQQKPDHLFRGLIGGTNKRAPGTPARFSGSLLGDKAALTISGAQPEDEAEYYCALWYSNLWVFGGGTKLTVLKRTVAAPSVFIFPPSDEQLKSGTASVVCLLNNFYPREAKVQWKVDNALQSGNSQESVTEQDSKDSTYSLSSTLTLSKADYEKHKVYACEVTHQGLSSPVTKSFNRGECDKTHTCPPCPAPPVAGPSVFLFPPKPKDTLMISRTPEVTCVVVDVSHEDPEVKFNWYVDGVEVHNAKTKPREEQYNSTYRVVSVLTVLHQDWLNGKEYKCKVSNKGLPSSIEKTISKAKGQPREPQVCTLPPSRDELTKNQVSLSCAVKGFYPSDIAVEWESNGQPENNYKTTPPVLDSDGSFFLVSKLTVDKSRWQQGNVFSCSVMHEALHNHYTQKSLSLSPGKGGSGGSGGGGSGGGGSDIQMTQSPSSLSASVGDRVTITCQASQDISNYLNWYQQKPGKAPKLLIYDASNLETGVPSRFSGSGSGTDFTFTISSLQPEDIATYFCQHFDHLPLAFGGGTKVEIKGGGGSGGGGSGGGGSQVQLQESGPGLVKPSETLSLTCTVSGGSVSSGDYYWTWIRQSPGKGLEWIGHIYYSGNTNYNPSLKSRLTISIDTSKTQFSLKLSSVTAADTAIYYCVRDRVTGAFDIWGQGTMVTVSS |  | 1.12 | 7.72 | 11
4 | IgFD-7(anti-CD19/CD3) (bispecific antibody, human IgG1, kappa) chain 1: EVQLVESGGGLVQPGGSLRLSCAASGFTFNTYAMNWVRQAPGKGLEWVARIRSKYNNYATYYADSVKDRFTISRDDSKNTLYLQMNSLRAEDTAVYYCVRHGNFGNSYVSWFAYWGQGTLVTVSSASTKGPSVFPLAPSSKSTSGGTAALGCLVKDYFPEPVTVSWNSGALTSGVHTFPAVLQSSGLYSLSSVVTVPSSSLGTQTYICNVNHKPSNTKVDKKVEPKSCDKTHTCPPCPAPPVAGPSVFLFPPKPKDTLMISRTPEVTCVVVDVSHEDPEVKFNWYVDGVEVHNAKTKPREEQYNSTYRVVSVLTVLHQDWLNGKEYKCKVSNKGLPSSIEKTISKAKGQPREPQVYTLPPSRDELTKNQVSLTCLVKGFYPSDIAVEWESNGQPENNYKTTPPVLDSDGSFFLYSKLTVDKSRWQQGNVFSCSVMHEALHNHYTQKSLSLSPGK chain 2: QAVVTQEPSLTVSPGGTVTLTCRSSTGAVTTSNYANWVQQKPDHLFRGLIGGTNKRAPGTPARFSGSLLGDKAALTISGAQPEDEAEYYCALWYSNLWVFGGGTKLTVLKRTVAAPSVFIFPPSDEQLKSGTASVVCLLNNFYPREAKVQWKVDNALQSGNSQESVTEQDSKDSTYSLSSTLTLSKADYEKHKVYACEVTHQGLSSPVTKSFNRGECDKTHTCPPCPAPPVAGPSVFLFPPKPKDTLMISRTPEVTCVVVDVSHEDPEVKFNWYVDGVEVHNAKTKPREEQYNSTYRVVSVLTVLHQDWLNGKEYKCKVSNKGLPSSIEKTISKAKGQPREPQVYTLPPSRDELTKNQVSLTCLVKGFYPSDIAVEWESNGQPENNYKTTPPVLDSDGSFFLYSKLTVDKSRWQQGNVFSCSVMHEALHNHYTQKSLSLSPGKSGGGGSGGGGSGGGGSDIQMTQTTSSLSASLGDRVTISCRASQDISKYLNWYQQKPDGTVKLLIYHTSRLHSGVPSRFSGSGSGTDYSLTISNLEQEDIATYFCQQGNTLPYTFGGGTKLEITGGGGSGGGGSGGGGSEVKLQESGPGLVAPSQSLSVTCTVSGVSLPDYGVSWIRQPPRKGLEWLGVIWGSETTYYNSALKSRLTIIKDNSKSQVFLKMNSLQTDDTAIYYCAKHYYYGGSYAMDYWGQGTSVTVSS | 11.7 |  |  | 
